Experiment: yeast display, Sf9 membrane polyspecificity reagent, FACS + sequencing; frameworks hold sequencing errors
Outline: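 After 36–48 hours of galactose induction, yeast (Saccharomyces cerevisiae BJ5465) displaying a synthetic nanobody library were stained at 4 °C for 1 hour with 10% biotinylated, detergent-solubilized Sf9 membrane reagent. Streptavidin microbeads enriched the stained cells before FACS sorting into low and high (top ~1%) gates on anti-HA and streptavidin fluorescence. Each clone's polyreactivity label reflects its gate of origin.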

| Sequence | polyreactivity (PSR sort gate) |
| --- | --- |
| QVQLVESGGGLVQAGGSLRLSCAASGYIFPFNAMGWYRQAPGKERELVAAITNGGRTYYADSVKGRFTISRDNAKNTVYLQMNSLKPEDTAVYYCAAGSKSDMDWGQGTQVTVSS | low polyreactivity |
| QVQLVESGGGLVQAGGSLRLSCAASGRIFPSYAMGWYRQAPGKERELDATISSGGRTYYADSVKGRFTISRDNAKNTVYLQMNILKPEYTAVYYCNADRTQDRNPYTYATFDYWGQGTQVTVSS | low polyreactivity |
| QVQLVESGGGLVQAGGSLRLSCAASGRMGWYRQAPGKERELVAAITSGDRTNYADSVKGRFTISRDNAKNTVYLQMNSLKREDTAVYYCATEPSWYHGFIDPRGYWGQGTQVTVSS | low polyreactivity |
| QVQLVESGGGLVQAGGSLRLSCAASGRTFKNYAMGWYRQAPGKERELVAAISSGGGRTKYADSVKGRFTISRDNAKNSVYLQMNSLKPEDTAVYYCAAAYYYRDDYWGQGTQVTVSS | high polyreactivity |
| QVQLVESGGGLVQAGGSLRLSCPASGIIFHPYAMGWYRQAPGKERQLVAVITWPGDSTYYADSVKGRFTISRDNAKNTVYVQMNSLKPEDTAVYYCNVEAWGTSGELPYDYWGQGTQVTVSS | low polyreactivity |
| QVQLVESGGGLVQAGGSLSLICAASGSTFTENAMGWYRQAPGKERELVAVITSSDGTTYYADSVKGRFTISRDNAKNTVYLQMISLKPEDTAVSYCAADPYYFWWRYDFWGQGTQVTVSS | low polyreactivity |
| QVQLVESGGGLVQAGGSLRLSCAASASTFRPYAMGWFRQAPGKEREFVASITWRGGGTYYADSVKGRFTISRDNAKNTVYLQMNSLKPEDTAVFSCAAATQVRGNSLPYGYWGQGTQVTVSS | high polyreactivity |
| QVQLLESGGGLVQAGGSLRLSCAASGSIFPAYSMGWYRQAPGKERELVASITGSGGSTYYADSVKGRFTISRDNAKNSVYLQMTSLKPEETAVYYCNARYYVYSATVDRYYHFYYWGQGTQVTVSS | high polyreactivity |
| QVQRVESGGGLVHAAGSRRLSCAASGSIFWPYAMGWYRLAPGKEREFVAPISSSGSRTHYADSVKGRFTISRDTAKNTVYLQMNSLKPEDTAVYYCATDSRVITWYGGVEFDYWGQGTQVTVSS | low polyreactivity |
| QVQLVESGRGLVQAGGSLRLSCAASGFTFGYYAMGWYRQAPGKERELVASISRSGGSTNYADSVKGRFTISRDNAKNTVYLQMNSLKPEDTAVYYCNKRSYWYQGRFDYWGQGTQVTVSS | high polyreactivity |
| QVQLVESGGGLVQAGGSLRLSCAASGRTFSTNAMGWYRQAPGKERELVAAITSRGGSTYYADSVKGRFTISRDNAKNTVYLQMNSLKPEDPAVYYCAVDPLYYKTHYGTLGYYYLGQGTQVTVSS | low polyreactivity |
| QVQLVESGGGLVQAGGSLRLSCAASGFIFTKYVMGWYRQAPGKERELVAAISLNGGRTYYADSVKGRFTISRDNAKNTVDLQMNSLKPEDTAVYYCAVDAKAVSARTYDYGYWGQGTQVTVSS | high polyreactivity |
| QVQLVDSGGGLVQAGGSLRLISAASGLIFSWYDKGWYRQAPGKERELVAAITTDGDDTYYADSVKGRFTISRDNAKNTVYLQMNSLKPDDTAVYYCAADSELGIRYPDRDYDSWGLGTQVTVSS | low polyreactivity |
| QVQLVESGGGLVQAGGSLRLSCAASGFTFWRYAMGWYRQAPGKDRELVAAISWRGSSTYYADSVKGRFTISRDNAMNTVYLQMNSLKPEDTAVSYCARYQSTYDSTYNYWGQGTQVTVSS | high polyreactivity |
| QVQLVESGGGLVQAGGSLRLSCAASGSTFGRYAMGWYRQAPGKERELVAAISRGTTTNYADSVKGRFTISRDNAKNTVYLQMNILKPEDTAVYYCAAQTDSVESDYWGQGTQVTVSS | low polyreactivity |
| QVQLVESGGGLVQAGGSLRLSCAASGRIFWDNAMGWYRQAPGKERELVAAISDSVVITYYADSVKGRFTISRDTAKNTVYLQMNSLKPEDTAVYYCGADKRGTVYLSSFWMDYWGQGTQVTVSS | low polyreactivity |
| QVQLVESGGGLVHAGGSLRLSCAASGIIFGVYAMGWYRQAPGKERELVAAISWSGGSTYYADSVKGRFTISRDNAKNNVYLQMNSLKPEDTAVYYCAADAYPHEDYYWGQGNQVTVSS | high polyreactivity |

From the nanobody polyreactivity screen of Harvey et al. (2022)
